Sequences and labels used below:
B1: 22109 (protein)
chain: MALPVTALLLPLALLLHAARPMLPAPKNLVVSRITEDSARLSWTAPDAAFDSFPIRYIETLIWGEAIWLDVPGSERSYDLTGLKPGTEYAVVITGVKGGRFSSPLVASFTTGTGGGGSGGGGSGGGGSEFDIQMTQSPSSLSASVGDRVTITCKASDHINNWLAWYQQKPGQAPKLLIYGATTLETGVPSRFSGSGSGTDYTLTISSLQPEDFATYYCQQSWNTPWTFGQGTKLEIKRLEDLKNVFPPEVAVFEPSEAEISHTQKATLVCLATGFYPDHVELSWWVNGKEVHSGVCTDPQPLKEQPALNDSRYCLSSRLRVSATFWQNPRNHFRCQVQFYGLSENDEWTQDRAKPVTQIVSAEAWGRADCGFTSESYQQGVLSATILYEILLGKATLYAVLVSALVLMAMVKRKDSRGRAKRSGSGATNFSLLKQAGDVEENPGPTSMDWIWRILFLVGAATGAHSFEQVQLQQPGAELVKPGASVKMSCKASGYAFSSYWINWMKQKPGQGLEWIGQIYPGDGDTNYNGKFKGRATLTADTSSSTAYMQLSSLTSEDSAVYFCARSITTVVGCAMDYWGQGTSVTVSSTRIQNPDPAVYQLRDSKSSDKSVCLFTDFDSQTNVSQSKDSDVYITDKCVLDMRSMDFKSNSAVAWSNKSDFACANAFNNSIIPEDTFFPSPESSCDVKLVEKSFETDTNLNFQNLSVIGFRILLLKVAGFNLLMTLRLWSSRAKRSGSGVKQTLNFDLLKLAGDVESNPGPSRGHMTEYKPTVRLATRDDVPRAVRTLAAAFADYPATRHTVDPDRHIERVTELQELFLTRVGLDIGKVWVADDGAAVAVWTTPESVEAGAVFAEIGPRMAELSGSRLAAQQQMEGLLAPHRPKEPAWFLATVGVSPDHQGKGLGSAVVLPGVEAAERAGVPAFLETSAPRNLPFYERLGFTVTADVEVPEGPRTWCMTRKPGA
B2: 22111 (protein)
chain: MALPVTALLLPLALLLHAARPEVQLLESGGGLVQPGGSLRLSCAASGFTFSSYAMSWVRQAPGKGLEWVSSISGSGDYIYYADSVKGRFTISRDISKNTLYLQMNSLRAEDTAVYYCAKEGTGANSSLADYRGQGTLVTVSSGTGGGGSGGGGSGGGGSEFDIQMTQSPSSLSASVGDRVTITCKASDHINNWLAWYQQKPGQAPKLLIYGATTLETGVPSRFSGSGSGTDYTLTISSLQPEDFATYYCQQSWNTPWTFGQGTKLEIKRLEDLKNVFPPEVAVFEPSEAEISHTQKATLVCLATGFYPDHVELSWWVNGKEVHSGVCTDPQPLKEQPALNDSRYCLSSRLRVSATFWQNPRNHFRCQVQFYGLSENDEWTQDRAKPVTQIVSAEAWGRADCGFTSESYQQGVLSATILYEILLGKATLYAVLVSALVLMAMVKRKDSRGRAKRSGSGATNFSLLKQAGDVEENPGPTSMDWIWRILFLVGAATGAHSFEQVQLQQPGAELVKPGASVKMSCKASGYAFSSYWINWMKQKPGQGLEWIGQIYPGDGDTNYNGKFKGRATLTADTSSSTAYMQLSSLTSEDSAVYFCARSITTVVGCAMDYWGQGTSVTVSSTRIQNPDPAVYQLRDSKSSDKSVCLFTDFDSQTNVSQSKDSDVYITDKCVLDMRSMDFKSNSAVAWSNKSDFACANAFNNSIIPEDTFFPSPESSCDVKLVEKSFETDTNLNFQNLSVIGFRILLLKVAGFNLLMTLRLWSSRAKRSGSGVKQTLNFDLLKLAGDVESNPGPSRGHMTEYKPTVRLATRDDVPRAVRTLAAAFADYPATRHTVDPDRHIERVTELQELFLTRVGLDIGKVWVADDGAAVAVWTTPESVEAGAVFAEIGPRMAELSGSRLAAQQQMEGLLAPHRPKEPAWFLATVGVSPDHQGKGLGSAVVLPGVEAAERAGVPAFLETSAPRNLPFYERLGFTVTADVEVPEGPRTWCMTRKPGA
B3: 22127 (protein)
chain: MALPVTALLLPLALLLHAARPMLPAPKNLVVSRITEDSARLSWTAPDAAFDSFPIRYIETLIWGEAIWLDVPGSERSYDLTGLKPGTEYAVVITGVKGGRFSSPLVASFTTGTGGGGSGGGGSGGGGSEFDIQMTQSPSSLSASVGDRVTITCKASDHINNWLAWYQQKPGQAPKLLIYGATTLETGVPSRFSGSGSGTDYTLTISSLQPEDFATYYCQQSWNTPWTFGQGTKLEIKRLEIQNPDPAVYQLRDSKSSDKSVCLFTDFDSQTNVSQSKDSDVYITDKCVLDMRSMDFKSNSAVAWSNKSDFACANAFNNSIIPEDTFFPSSDVPCDVKLVEKSFETDTNLNFQNLSVIGFRILLLKVAGFNLLMTLRLWSSRAKRSGSGVKQTLNFDLLKLAGDVESNPGPTSATMDWIWRILFLVGAATGAHSGPQVQLQESGGGLAQAGGSLRLSCAASGRTFSMGWFRQAPGKEREFVAAITYSGGSPYYASSVRGRFTISRDNAKNTVYLQMNSLKPEDTAVYYCAANPTYGSDWNAENWGQGTQVTVSSGSGGGGSGGGGSGGGGSFEQVQLQQPGAELVKPGASVKMSCKASGYAFSSYWINWMKQKPGQGLEWIGQIYPGDGDTNYNGKFKGRATLTADTSSSTAYMQLSSLTSEDSAVYFCARSITTVVGCAMDYWGQGTSVTVSSTREDLKNVFPPEVAVFEPSKAEIAHTQKATLVCLATGFYPDHVELSWWVNGKEVHSGVCTDPQPLKEQPALNDSRYCLSSRLRVSATFWQNPRNHFRCQVQFYGLSENDEWTQDRAKPVTQIVSAEAWGRADCGITSASYHQGVLSATILYEILLGKATLYAVLVSALVLMAMVKRKDSRGRAKRSGSGATNFSLLKQAGDVEENPGPSRGHMTEYKPTVRLATRDDVPRAVRTLAAAFADYPATRHTVDPDRHIERVTELQELFLTRVGLDIGKVWVADDGAAVAVWTTPESVEAGAVFAEIGPRMAELSGSRLAAQQQMEGLLAPHRPKEPAWFLATVGVSPDHQGKGLGSAVVLPGVEAAERAGVPAFLETSAPRNLPFYERLGFTVTADVEVPEGPRTWCMTRKPGA
B4: 22142 (protein)
chain: MALPVTALLLPLALLLHAARPQVQLVESGGGLVQPGGSLRLSCAASGFTFTNHAMSWVRQAPGKGLELVSSISGNGRTTYYADSVKGRFTISRDISKNTLDLQMNSLRAEDTAVYYCAKDGGETLVDSRGQGTLVTVSSLEGGGGSGGGGSIEGGGGSGGGGSKVQLLESGGGLVQPGGSLRLSCAASGFIFSSYAMSWVRQAPGKGQEWVSGVSGTGVNTYYADSVKGRFTISRDNSKNTLYLQMNSLRAEDTAVYYCASGKGWDSGSWYEDYRGQGTLVTVSSGTGGGGSGGGGSGGGGSEFDIQMTQSPSSLSASVGDRVTITCKASDHINNWLAWYQQKPGQAPKLLIYGATTLETGVPSRFSGSGSGTDYTLTISSLQPEDFATYYCQQSWNTPWTFGQGTKLEIKRLEIQNPDPAVYQLRDSKSSDKSVCLFTDFDSQTNVSQSKDSDVYITDKCVLDMRSMDFKSNSAVAWSNKSDFACANAFNNSIIPEDTFFPSSDVPCDVKLVEKSFETDTNLNFQNLSVIGFRILLLKVAGFNLLMTLRLWSSRAKRSGSGVKQTLNFDLLKLAGDVESNPGPTSATMDWIWRILFLVGAATGAHSGPQVQLQESGGGLAQAGGSLRLSCAASGRTFSMGWFRQAPGKEREFVAAITYSGGSPYYASSVRGRFTISRDNAKNTVYLQMNSLKPEDTAVYYCAANPTYGSDWNAENWGQGTQVTVSSGSGGGGSGGGGSGGGGSFEQVQLQQPGAELVKPGASVKMSCKASGYAFSSYWINWMKQKPGQGLEWIGQIYPGDGDTNYNGKFKGRATLTADTSSSTAYMQLSSLTSEDSAVYFCARSITTVVGCAMDYWGQGTSVTVSSTREDLKNVFPPEVAVFEPSKAEIAHTQKATLVCLATGFYPDHVELSWWVNGKEVHSGVCTDPQPLKEQPALNDSRYCLSSRLRVSATFWQNPRNHFRCQVQFYGLSENDEWTQDRAKPVTQIVSAEAWGRADCGITSASYHQGVLSATILYEILLGKATLYAVLVSALVLMAMVKRKDSRGRAKRSGSGATNFSLLKQAGDVEENPGPSRGHMTEYKPTVRLATRDDVPRAVRTLAAAFADYPATRHTVDPDRHIERVTELQELFLTRVGLDIGKVWVADDGAAVAVWTTPESVEAGAVFAEIGPRMAELSGSRLAAQQQMEGLLAPHRPKEPAWFLATVGVSPDHQGKGLGSAVVLPGVEAAERAGVPAFLETSAPRNLPFYERLGFTVTADVEVPEGPRTWCMTRKPGA

One assay has as its system Nalm6 cells. The assay can be described thus: JNG assay, co-culture with Nalm6 cells. Type of assay: cell-based. The settings on record: co-culture with Nalm6. The method in brief: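 NFAT-driven GFP in stably SAR-transduced Jurkat cells after coculture (E:T ~1:2; ~4–18 h), measured by flow cytometry and expressed as % GFP+ cells over parental Jurkat-NFAT-GFP cells.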
B1: the “NFAT-GFP ASSAY: Nalm6” value was 2+ (refer to approximately 5%, 10%, 20%, 30%, 40% and 50% GFP positive cells).
On the same count and under the same terms, the value for B2 was 2+ (refer to approximately 5%, 10%, 20%, 30%, 40% and 50% GFP positive cells); that for B3 was “Raji (+), Raji-CD19-KO (+), Nalm6 (+), L363 (+), RS411 (+) (refer to approximately 5%, 10%, 20%, 30%, 40% and 50% GFP positive cells)”.
The same measure, in the same setting: the value for B4 was “+ (refer to approximately 5%, 10%, 20%, 30%, 40% and 50% GFP positive cells)”.

For another assay, the system named is L363 cells. The assay is described as follows: JNG assay, co-culture with L363 cells. The settings on record: co-culture with L363. Format: cell-based. In short, it runs like this:
(§1)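 Jurkat-NFAT-GFP (JNG) cells stably expressing SAR constructs via lentiviral transduction and puromycin/blasticidin selection were cocultured with target cells at E:T ~1:2 for ~4–18 h. NFAT-driven GFP was measured by FACS versus parental JNG cells; scores +/- to 5+ denote ~5–50% GFP-positive cells.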
As for B1, the “NFAT-GFP ASSAY: L363” value is “+/- (refer to approximately 5%, 10%, 20%, 30%, 40% and 50% GFP positive cells)”.
Still for that read-out and setting: the value for B2 was 3+ (refer to approximately 5%, 10%, 20%, 30%, 40% and 50% GFP positive cells); that for B3 was “Raji (+), Raji-CD19-KO (+), Nalm6 (+), L363 (+), RS411 (+) (refer to approximately 5%, 10%, 20%, 30%, 40% and 50% GFP positive cells)”.

In the next assay the test system is RS;411. The assay is described as follows: JNG assay, co-culture with RS;411 cells. Format: cell-based. The conditions noted are these: co-culture with RS411. In short, it runs like this: as §1
As to B1, the “NFAT-GFP ASSAY: RS411” value was 4+ (refer to approximately 5%, 10%, 20%, 30%, 40% and 50% GFP positive cells).
For B2, the “NFAT-GFP ASSAY: RS411” value was 4+ (refer to approximately 5%, 10%, 20%, 30%, 40% and 50% GFP positive cells).
Same read-out and setting: the result for B3 reads “Raji (+), Raji-CD19-KO (+), Nalm6 (+), L363 (+), RS411 (+) (refer to approximately 5%, 10%, 20%, 30%, 40% and 50% GFP positive cells)”; that for B4, “+/- (refer to approximately 5%, 10%, 20%, 30%, 40% and 50% GFP positive cells)”.

The test system of a further assay is RAJI cells. The assay is described as follows: JNG assay, co-culture with RAJI cells. Format: cell-based. The settings on record: JNG cells expressing construct, co-culture with Raji. In short, it runs like this:
as §1
For B1, the “NFAT-GFP ASSAY: Raji” value was 2+ (refer to approximately 5%, 10%, 20%, 30%, 40% and 50% GFP positive cells).
Regarding B2, the “NFAT-GFP ASSAY: Raji” value was 4+ (refer to approximately 5%, 10%, 20%, 30%, 40% and 50% GFP positive cells).
Consider B3, for which the “NFAT-GFP ASSAY: Raji” value is “Raji (+), Raji-CD19-KO (+), Nalm6 (+), L363 (+), RS411 (+) (refer to approximately 5%, 10%, 20%, 30%, 40% and 50% GFP positive cells)”.
Still for that read-out and setting: the value for B4 was “+ (refer to approximately 5%, 10%, 20%, 30%, 40% and 50% GFP positive cells)”.

Another assay relates to RAJI-CD19-KO cells. The assay can be described thus: JNG assay, co-culture with RAJI-CD19-KO cells. The conditions noted are these: co-culture with Raji-CD19-KO. Type of assay: cell-based. In short, it runs like this:
as §1
Take B1: the “NFAT-GFP ASSAY: Raji-CD19-KO” value was “+/- (refer to approximately 5%, 10%, 20%, 30%, 40% and 50% GFP positive cells)”.
Still for that read-out and setting: the value for B2 was 3+ (refer to approximately 5%, 10%, 20%, 30%, 40% and 50% GFP positive cells).
With B3, the “NFAT-GFP ASSAY: Raji-CD19-KO” value was “Raji (+), Raji-CD19-KO (+), Nalm6 (+), L363 (+), RS411 (+) (refer to approximately 5%, 10%, 20%, 30%, 40% and 50% GFP positive cells)”.
Same read-out and setting: the value for B4 was “+ (refer to approximately 5%, 10%, 20%, 30%, 40% and 50% GFP positive cells)”.

The record behind these values is patent publication US20230212319A1, “NOVEL ANTIGEN BINDING DOMAINS AND SYNTHETIC ANTIGEN RECEPTORS INCORPORATING THE SAME” (University of Southern California, priority 2020, published 2023).
